# In paper PMC11975286, “Functional dissection of the conserved C. elegans LEM-3/ANKLE1 nuclease reveals a crucial requirement for the LEM-like and GIY-YIG domains for DNA bridge processing”:
# Tests used:
# LEM-3(485-704) = biological target: T1, LEM-3(485-704) (Caenorhabditis elegans, UniProt G5EGA3 485-704); experiment: EMSA; no divalent metal, 100 mM Na+; 10 mM Tris-HCl pH 7.5, 100 mM NaCl, 5% glycerol, 5 ng/ul poly(dI-dC), 4 C, 1 h; 8.3 nM HJ-X0-1 (0.13 nM for Kd); 6% native PAGE, 0.5x TBE, 4 C; conditions: protein: recombinant; tags: His-GST removed by TEV; label: 5'-Cy5 on X0-1; four-way junction of 4 strands, 1 copy each
# T1 sequence: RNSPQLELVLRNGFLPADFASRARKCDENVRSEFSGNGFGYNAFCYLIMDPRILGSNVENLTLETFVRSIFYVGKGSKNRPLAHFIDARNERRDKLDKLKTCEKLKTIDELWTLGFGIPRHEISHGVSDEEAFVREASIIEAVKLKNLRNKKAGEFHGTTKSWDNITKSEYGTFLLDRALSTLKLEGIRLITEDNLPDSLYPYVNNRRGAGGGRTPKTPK
# LEM-3(241-704) = biological target: T2, LEM-3(241-704) (Caenorhabditis elegans, UniProt G5EGA3 241-704); experiment: EMSA; no divalent metal, 100 mM Na+; 0.13 nM HJ; cooperative (Hill) fit; 10 mM Tris-HCl pH 7.5, 100 mM NaCl, 5% glycerol, 5 ng/ul poly(dI-dC), 4 C, 1 h; 8.3 nM HJ-X0-1 (0.13 nM for Kd); 6% native PAGE, 0.5x TBE, 4 C; conditions: protein: recombinant; tags: His-GST removed by TEV; label: 5'-Cy5 on X0-1; four-way junction of 4 strands, 1 copy each
# T2 sequence: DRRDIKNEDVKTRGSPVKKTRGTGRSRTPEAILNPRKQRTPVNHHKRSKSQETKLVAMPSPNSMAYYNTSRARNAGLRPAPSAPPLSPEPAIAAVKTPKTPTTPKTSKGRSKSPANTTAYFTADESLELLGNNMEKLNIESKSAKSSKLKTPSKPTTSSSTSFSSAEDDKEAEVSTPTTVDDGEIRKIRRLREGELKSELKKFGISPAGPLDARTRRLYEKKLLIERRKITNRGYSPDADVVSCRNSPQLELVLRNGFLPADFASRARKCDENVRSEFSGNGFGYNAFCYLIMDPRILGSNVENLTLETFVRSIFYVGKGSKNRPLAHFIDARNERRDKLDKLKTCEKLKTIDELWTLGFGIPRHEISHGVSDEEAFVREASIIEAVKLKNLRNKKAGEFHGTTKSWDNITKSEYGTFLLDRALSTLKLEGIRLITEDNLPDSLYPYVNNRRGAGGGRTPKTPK
binder,measurement,setting,value
HJ-X0-1 (immobile Holliday junction) (structured_DNA) DNA 1: ACGCTGCCGAATTCTACCAGTGCCTTGCTAGGACATCTTTGCCCACCTGCAGGTTCACCC DNA 2: GGGTGAACCTGCAGGTGGGCAAAGATGTCCATCTGTTGTAATCGTCAAGCTTTATGCCGT DNA 3: ACGGCATAAAGCTTGACGATTACAACAGATCATGGAGCTGTCTAGAGGATCCGACTATCG DNA 4: CGATAGTCGGATCCTCTAGACAGCTCCATGTAGCAAGGCACTGGTAGAATTCGGCAGCGT,binding result,LEM-3(485-704),no binding
same,Kd,LEM-3(241-704),~40 nM
